The results in this text go back to the supplement of paper PMC5998384.

For series [1], the system named is HeLa Kyoto. Nature of the series: melting temperature (median over replicates), in situ; higher = more thermally stable.
Series [2] concerns HeLa Kyoto. Put plainly: solubility change mitosis vs G1/S (difference of NP-40 vs SDS log2 ratios) (log2 ratio difference); higher = more soluble in mitosis.
Series [3] has as its system HeLa Kyoto. Nature of the series: thermal stability score vs G1/S (z-score of summed log2 fold changes over temperatures); higher = more thermally stable than in G1/S.
Series [4] deals with HeLa Kyoto. Nature of the series: solubility in G1/S (NP-40 vs SDS abundance) (log2 ratio); higher = more soluble. To be noted: cell cycle stage: G1/S.
The mark [5] stands for this setting: cell cycle stage: early G1 (4.5 h after nocodazole release).
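For melting temperature (median over replicates), in situ in this document: HeLa Kyoto cells synchronized by double thymidine or nocodazole block, proteins quantified by TMT10plex mass spectrometry, three independent biological replicates.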
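For solubility change mitosis vs G1/S (difference of NP-40 vs SDS log2 ratios) in this document: synchronized HeLa Kyoto cells (double thymidine block for G1/S, nocodazole release for mitosis), protein amounts in NP-40 versus SDS lysates quantified by mass spectrometry, three biological replicates.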
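For solubility in G1/S (NP-40 vs SDS abundance) in this document: HeLa Kyoto cells arrested at G1/S by double thymidine block, proteins quantified by TMT10plex mass spectrometry in mild NP-40 versus SDS extracts, three biological replicates.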
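For thermal stability score vs G1/S (z-score of summed log2 fold changes over temperatures) in this document: synchronized HeLa Kyoto cells, proteins quantified by TMT10plex mass spectrometry, three biological replicates, mitosis taken 0.5 h after nocodazole release, G1/S directly after double thymidine block.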

Take “MQDGNFLLSALQPEAGVCSLALPSDLQLDRRGAEGPEAERLRAARVQEQVRARLLQLGQQPRHNGAAEPEPEAETARGTSRGQYHTLQAGFSSRSQGLSGDKTSGFRPIAKPAYSPASWSSRSAVDLSCSRRLSSAHNGGSAFGAAGYGGAQPTPPMPTRPVSFHERGGVGSRADYDTLSLRSLRLGPGGLDDRYSLVSEQLEPAATSTYRAFAYERQASSSSSRAGGLDWPEATEVSPSRTIRAPAVRTLQRFQSSHRSRGVGGAVPGAVLEPVARAPSVRSLSLSLADSGHLPDVHGFNSYGSHRTLQRLSSGFDDIDLPSAVKYLMASDPNLQVLGAAYIQHKCYSDAAAKKQARSLQAVPRLVKLFNHANQEVQRHATGAMRNLIYDNADNKLALVEENGIFELLRTLREQDDELRKNVTGILWNLSSSDHLKDRLARDTLEQLTDLVLSPLSGAGGPPLIQQNASEAEIFYNATGFLRNLSSASQATRQKMRECHGLVDALVTSINHALDAGKCEDKSVENAVCVLRNLSYRLYDEMPPSALQRLEGRGRRDLAGAPPGEVVGCFTPQSRRLRELPLAADALTFAEVSKDPKGLEWLWSPQIVGLYNRLLQRCELNRHTTEAAAGALQNITAGDRRWAGVLSRLALEQERILNPLLDRVRTADHHQLRSLTGLIRNLSRNARNKDEMSTKVVSHLIEKLPGSVGEKSPPAEVLVNIIAVLNNLVVASPIAARDLLYFDGLRKLIFIKKKRDSPDSEKSSRAASSLLANLWQYNKLHRDFRAKGYRKEDFLGP [PKP3]”: the melting temperature worked out at 50.1 °C in the series on HeLa Kyoto [1] (cell cycle stage: G1/S) and 48.3 °C in the series on HeLa Kyoto [1] (cell cycle stage: mitosis). Besides, in the series on HeLa Kyoto [2], the “solubility change mitosis (log2)” value turned out to be 0.099. In addition, the thermal stability score with HeLa Kyoto [3] (setting [5]) is -0.69; with HeLa Kyoto [3] (cell cycle stage: mitosis), -0.255. Further, the “solubility in G1/S (log2)” value with HeLa Kyoto [4] was -0.223.
In the case of “MQEKDASSQGFLPHFQHFATQAIHVGQDPEQWTSRAVVPPISLSTTFKQGAPGQHSGFEYSRSGNPTRNCLEKAVAALDGAKYCLAFASGLAATVTITHLLKAGDQIICMDDVYGGTNRYFRQVASEFGLKISFVDCSKIKLLEAAITPETKLVWIETPTNPTQKVIDIEGCAHIVHKHGDIILVVDNTFMSPYFQRPLALGADISMYSATKYMNGHSDVVMGLVSVNCESLHNRLRFLQNSLGAVPSPIDCYLCNRGLKTLHVRMEKHFKNGMAVAQFLESNPWVEKVIYPGLPSHPQHELVKRQCTGCTGMVTFYIKGTLQHAEIFLKNLKLFTLAESLGGFESLAELPAIMTHASVLKNDRDVLGISDTLIRLSVGLEDEEDLLEDLDQALKAAHPPSGSHS [CTH]”, the values for the melting temperature with HeLa Kyoto [1] (cell cycle stage: G1/S) and in the series on HeLa Kyoto [1] (cell cycle stage: mitosis) were 59 °C and 58.5 °C, respectively. Moreover, in the series with HeLa Kyoto [2], the “solubility change mitosis (log2)” value was -0.134. Besides, the values for the thermal stability score in the series with HeLa Kyoto [3] (setting [5]) and in the series with HeLa Kyoto [3] (cell cycle stage: mitosis) were -1.76 and -0.741, respectively. In addition, the “solubility in G1/S (log2)” value with HeLa Kyoto [4] worked out at 0.283.
“MQGPPRSLRAGLSLDDFIPGHLQSHIGSSSRGTRVPVIRNGGSNTLNFQFHDPAPRTVCNGGYTPRRDASQHPDPAWYQTWPGPGSKPSASTKIPASQHTQNWSATWTKDSKRRDKRWVKYEGIGPVDESGMPIAPRSSVDRPRDWYRRMFQQIHRKMPDLQLDWTFEEPPRDPRHLGAQQRPAHRPGPATSSSGRSWDHSEELPRSTFNYRPGAFSTVLQPSNQVLRRREKVDNVWTEESWNQFLQELETGQRPKKPLVDDPGEKPSQPIEVLLERELAELSAELDKDLRAIETRLPSPKSSPAPRRAPEQRPPAGPASAWSSSYPHAPYLGSARSLSPHKMADGGSPFLGRRDFVYPSSTRDPSASNGGGSPARREEKKRKAARLKFDFQAQSPKELTLQKGDIVYIHKEVDKNWLEGEHHGRLGIFPANYVEVLPADEIPKPIKPPTYQVLEYGEAVAQYTFKGDLEVELSFRKGEHICLIRKVNENWYEGRITGTGRQGIFPASYVQVSREPRLRLCDDGPQLPTSPRLTAAARSARHPSSPSALRSPADPIDLGGQTSPRRTGFSFPTQEPRPQTQNLGTPGPALSHSRGPSHPLDLGTSSPNTSQIHWTPYRAMYQYRPQNEDELELREGDRVDVMQQCDDGWFVGVSRRTQKFGTFPGNYVAPV [SORBS3]”: the melting temperature with HeLa Kyoto [1] (cell cycle stage: G1/S) was determined as 51.2 °C; with HeLa Kyoto [1] (cell cycle stage: mitosis), 52 °C. Moreover, the “solubility change mitosis (log2)” value with HeLa Kyoto [2] is -0.0255. Besides, the values for the thermal stability score with HeLa Kyoto [3] (setting [5]) and in the series with HeLa Kyoto [3] (cell cycle stage: mitosis) were -0.822 and 0.186, respectively. Besides, the “solubility in G1/S (log2)” value in the series with HeLa Kyoto [4] came out at 0.169.
Consider “MQNYKYDKAIVPESKNGGSPALNNNPRRSGSKRVLLICLDLFCLFMAGLPFLIIETSTIKPYHRGFYCNDESIKYPLKTGETINDAVLCAVGIVIAILAIITGEFYRIYYLKKSRSTIQNPYVAALYKQVGCFLFGCAISQSFTDIAKVSIGRLRPHFLSVCNPDFSQINCSEGYIQNYRCRGDDSKVQEARKSFFSGHASFSMYTMLYLVLYLQARFTWRGARLLRPLLQFTLIMMAFYTGLSRVSDHKHHPSDVLAGFAQGALVACCIVFFVSDLFKTKTTLSLPAPAIRKEILSPVDIIDRNNHHNMM [PLPP3]”, for which the figures for the melting temperature in the series on HeLa Kyoto [1] (cell cycle stage: G1/S) and with HeLa Kyoto [1] (cell cycle stage: mitosis) were 57 °C and 55.7 °C, respectively. For the same sequence, in the series with HeLa Kyoto [2], the “solubility change mitosis (log2)” value is -0.139. For the same sequence, the thermal stability score was -1.69 with HeLa Kyoto [3] (setting [5]) and 5.11 in the series with HeLa Kyoto [3] (cell cycle stage: mitosis). For the same sequence, the “solubility in G1/S (log2)” value with HeLa Kyoto [4] is -0.0783.
“MQRALPGARQHLGAILASASVVVKALCAAVLFLYLLSFAVDTGCLAVTPGYLFPPNFWIWTLATHGLMEQHVWDVAISLTTVVVAGRLLEPLWGALELLIFFSVVNVSVGLLGAFAYLLTYMASFNLVYLFTVRIHGALGFLGGVLVALKQTMGDCVVLRVPQVRVSVMPMLLLALLLLLRLATLLQSPALASYGFGLLSSWVYLRFYQRHSRGRGDMADHFAFATFFPEILQPVVGLLANLVHSLLVKVKICQKTVKRYDVGAPSSITISLPGTDPQDAERRRQLALKALNERLKRVEDQSIWPSMDDDEEESGAKVDSPLPSDKAPTPPGKGAAPESSLITFEAAPPTL [TMEM115]” returned a melting temperature with HeLa Kyoto [1] (cell cycle stage: G1/S) of 55.8 °C. Further, the “solubility change mitosis (log2)” value with HeLa Kyoto [2] is 0.0464. Also, the values for the thermal stability score with HeLa Kyoto [3] (setting [5]) and with HeLa Kyoto [3] (cell cycle stage: mitosis) were -2.84 and -3.54, respectively. The “solubility in G1/S (log2)” value with HeLa Kyoto [4] was -0.146.
For “MQSTSNHLWLLSDILGQGATANVFRGRHKKTGDLFAIKVFNNISFLRPVDVQMREFEVLKKLNHKNIVKLFAIEEETTTRHKVLIMEFCPCGSLYTVLEEPSNAYGLPESEFLIVLRDVVGGMNHLRENGIVHRDIKPGNIMRVIGEDGQSVYKLTDFGAARELEDDEQFVSLYGTEEYLHPDMYERAVLRKDHQKKYGATVDLWSIGVTFYHAATGSLPFRPFEGPRRNKEVMYKIITGKPSGAISGVQKAENGPIDWSGDMPVSCSLSRGLQVLLTPVLANILEADQEKCWGFDQFFAETSDILHRMVIHVFSLQQMTAHKIYIHSYNTATIFHELVYKQTKIISSNQELIYEGRRLVLEPGRLAQHFPKTTEENPIFVVSREPLNTIGLIYEKISLPKVHPRYDLDGDASMAKAITGVVCYACRIASTLLLYQELMRKGIRWLIELIKDDYNETVHKKTEVVITLDFCIRNIEKTVKVYEKLMKINLEAAELGEISDIHTKLLRLSSSQGTIETSLQDIDSRLSPGGSLADAWAHQEGTHPKDRNVEKLQVLLNCMTEIYYQFKKDKAERRLAYNEEQIHKFDKQKLYYHATKAMTHFTDECVKKYEAFLNKSEEWIRKMLHLRKQLLSLTNQCFDIEEEVSKYQEYTNELQETLPQKMFTASSGIKHTMTPIYPSSNTLVEMTLGMKKLKEEMEGVVKELAENNHILERFGSLTMDGGLRNVDCL [TBK1]”, the melting temperature in the series on HeLa Kyoto [1] (cell cycle stage: G1/S) and in the series with HeLa Kyoto [1] (cell cycle stage: mitosis) was 48.6 °C each time. In the series on HeLa Kyoto [2], the “solubility change mitosis (log2)” value was -0.105. For the same sequence, the values for the thermal stability score in the series on HeLa Kyoto [3] (setting [5]) and with HeLa Kyoto [3] (cell cycle stage: mitosis) were 0.969 and 1.43, respectively. Besides, the “solubility in G1/S (log2)” value in the series on HeLa Kyoto [4] was -0.00961.
For “MQWNVPRTVSRLARRTCLEPHNAGLFGHCQNVKGPLLLYNAESKVVLVQGPQKQWLHLSAAQCVAKERRPLDAHPPQPGVLRHKQGKQHVSFRRVFSSSATAQGTPEKKEEPDPLQDKSISLYQRFKKTFRQYGKVLIPVHLITSGVWFGTFYYAALKGVNVVPFLELIGLPDSVVSILKNSQSGNALTAYALFKIATPARYTVTLGGTSVTVKYLRSHGYMSTPPPVKEYLQDRMEETKELITEKMEETKDRLTEKLQETKEKVSFKKKVE [FAM210A]”, the melting temperature was found to be 55.7 °C in the series with HeLa Kyoto [1] (cell cycle stage: G1/S) and 54.9 °C with HeLa Kyoto [1] (cell cycle stage: mitosis). Further, the “solubility change mitosis (log2)” value in the series on HeLa Kyoto [2] is -0.102. Besides, the results for the thermal stability score in the series with HeLa Kyoto [3] (setting [5]) and in the series on HeLa Kyoto [3] (cell cycle stage: mitosis) were -3.65 and -2.22, respectively. Further, the “solubility in G1/S (log2)” value in the series with HeLa Kyoto [4] amounted to 0.234.
As to “MRAVLAREMDGRRVLGRFWSGWRRGLGVRPVPEDAGFGTEARHQRQPRGSCQRSGPLGDQPFAGLLPKNLSREELVDALRAAVVDRKGPLVTLNKPQGLPVTGKPGELTLFSVLPELSQSLGLREQELQVVRASGKESSGLVLLSSCPQTASRLQKYFTHARRAQRPTATYCAVTDGIPAASEGKIQAALKLEHIDGVNLTVPVKAPSRKDILEGVKKTLSHFRVVATGSGCALVQLQPLTVFSSQLQVHMVLQLCPVLGDHMYSARVGTVLGQRFLLPAENNKPQRQVLDEALLRRLHLTPSQAAQLPLHLHLHRLLLPGTRARDTPVELLAPLPPYFSRTLQCLGLRLQ [RPUSD3]”, the melting temperature was determined as 50.1 °C in the series with HeLa Kyoto [1] (cell cycle stage: G1/S) and 51.2 °C with HeLa Kyoto [1] (cell cycle stage: mitosis). Also, in the series on HeLa Kyoto [2], the “solubility change mitosis (log2)” value is 0.0294. For the same sequence, the thermal stability score in the series on HeLa Kyoto [3] (setting [5]) is -1.94; in the series on HeLa Kyoto [3] (cell cycle stage: mitosis), 0.774. Also, the “solubility in G1/S (log2)” value in the series with HeLa Kyoto [4] turned out to be 0.193.
